What was measured:
[1] = molecular target: putative BibA receptor on human epithelial cells (ME180, A549, Caco2, 16HBE); test: flow cytometry, recombinant BibA on ME180 cells, anti-BibA serum and PE-conjugated secondary antibody
[2] = molecular target: putative BibA receptor on human epithelial cells (ME180, A549, Caco2, 16HBE); test: flow cytometry saturation curve on ME180 cells, BibA concentration at 50% saturation (FIG. 22B)
[3] = molecular target: T1, human C4b-binding protein (C4BP) purified from citrated human plasma (human, UniProt P04003 49-597; P20851 18-252); test: overlay blot of the SDS-PAGE separated constructs with C4bp (FIG. 21C)
T1 construct: also called human plasma C4BP; human complement regulator C4 bp
T1 sequence 1: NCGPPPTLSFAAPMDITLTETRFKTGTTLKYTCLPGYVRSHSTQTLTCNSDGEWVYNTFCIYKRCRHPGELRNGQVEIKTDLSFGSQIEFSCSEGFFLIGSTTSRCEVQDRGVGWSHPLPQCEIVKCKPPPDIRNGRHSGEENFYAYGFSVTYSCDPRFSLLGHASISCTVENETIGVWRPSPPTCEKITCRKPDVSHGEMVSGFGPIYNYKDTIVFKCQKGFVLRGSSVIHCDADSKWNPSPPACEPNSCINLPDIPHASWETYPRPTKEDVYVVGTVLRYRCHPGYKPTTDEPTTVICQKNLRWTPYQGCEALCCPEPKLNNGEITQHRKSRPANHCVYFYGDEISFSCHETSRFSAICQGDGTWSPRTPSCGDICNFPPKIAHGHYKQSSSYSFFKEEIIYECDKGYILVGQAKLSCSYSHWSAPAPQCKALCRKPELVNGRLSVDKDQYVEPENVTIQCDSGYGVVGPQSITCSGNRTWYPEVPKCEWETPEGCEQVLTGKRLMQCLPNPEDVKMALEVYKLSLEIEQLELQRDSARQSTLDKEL
T1 sequence 2: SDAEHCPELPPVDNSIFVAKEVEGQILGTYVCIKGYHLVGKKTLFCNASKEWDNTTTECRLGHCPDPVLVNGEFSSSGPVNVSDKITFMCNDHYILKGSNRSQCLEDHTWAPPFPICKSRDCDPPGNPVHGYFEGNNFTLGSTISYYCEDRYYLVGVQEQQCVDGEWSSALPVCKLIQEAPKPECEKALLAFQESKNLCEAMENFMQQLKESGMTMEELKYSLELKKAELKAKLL

[4] = molecular target: T2, Factor H (alternative complement pathway regulator) (UniProt P08603 19-1231); test: overlay blot (format not detailed)
T2 construct: also called FH
T2 sequence (P08603 19-1231): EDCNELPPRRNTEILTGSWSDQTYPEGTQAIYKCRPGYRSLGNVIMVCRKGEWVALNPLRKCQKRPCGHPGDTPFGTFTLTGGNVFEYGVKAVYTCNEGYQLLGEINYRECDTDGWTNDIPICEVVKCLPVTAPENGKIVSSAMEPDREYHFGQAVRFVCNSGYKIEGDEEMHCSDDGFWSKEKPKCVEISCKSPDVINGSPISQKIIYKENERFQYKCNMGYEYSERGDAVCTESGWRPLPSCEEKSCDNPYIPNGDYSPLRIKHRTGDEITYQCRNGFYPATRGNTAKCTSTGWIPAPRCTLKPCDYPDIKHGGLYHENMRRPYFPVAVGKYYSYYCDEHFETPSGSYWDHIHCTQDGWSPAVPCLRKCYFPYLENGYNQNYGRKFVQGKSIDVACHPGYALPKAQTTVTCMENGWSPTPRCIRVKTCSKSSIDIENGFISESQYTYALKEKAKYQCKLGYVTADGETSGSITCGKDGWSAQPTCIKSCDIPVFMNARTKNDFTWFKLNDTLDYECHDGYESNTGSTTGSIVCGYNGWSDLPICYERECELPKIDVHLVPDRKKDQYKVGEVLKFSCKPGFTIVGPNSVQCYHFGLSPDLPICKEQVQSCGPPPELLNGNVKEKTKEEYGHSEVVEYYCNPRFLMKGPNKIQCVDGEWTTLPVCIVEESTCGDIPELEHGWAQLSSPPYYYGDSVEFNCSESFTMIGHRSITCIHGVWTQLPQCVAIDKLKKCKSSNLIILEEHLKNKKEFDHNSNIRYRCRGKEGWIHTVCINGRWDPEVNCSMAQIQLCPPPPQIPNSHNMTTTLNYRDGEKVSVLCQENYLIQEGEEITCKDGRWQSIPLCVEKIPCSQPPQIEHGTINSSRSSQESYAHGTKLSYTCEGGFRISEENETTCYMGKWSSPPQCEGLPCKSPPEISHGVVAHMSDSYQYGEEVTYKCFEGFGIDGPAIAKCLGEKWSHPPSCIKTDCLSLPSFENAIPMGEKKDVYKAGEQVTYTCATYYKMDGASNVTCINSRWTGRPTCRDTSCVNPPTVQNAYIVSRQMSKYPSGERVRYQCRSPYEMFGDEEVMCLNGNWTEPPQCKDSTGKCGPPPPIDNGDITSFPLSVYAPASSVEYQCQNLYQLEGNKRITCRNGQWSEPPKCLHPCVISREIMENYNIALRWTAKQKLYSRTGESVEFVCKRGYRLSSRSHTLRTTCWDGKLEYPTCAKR

BibA-His (GBS3-His), recombinant entire form of BibA from S. agalactiae 2603 V/R with C-terminal His-tag
BibA concentration at which binding reached a plateau [1]: 5 µg/mL | Kd [2]: 0.04 µM

B1: BibA-Nt-His (GBS3-Nt-His), coiled-coil domain of BibA, aa 34-394 (other)
chain: MHADTSSGISASIPHKKQVNLGAVTLKNLISKYRGNDKAIAILLSRVNDFNRASQDTLPQLINSTEAEIRNILYQGQIGKQNKPSVTTHAKVSDQELGKQSRRSQDIIKSLGFLSSDQKDILVKSISSSKDSQLILKFVTQATQLNNAESTKAKQMAQNDVALIKNISPEVLEEYKEKIQRASTKSQVDEFVAEAKKVVNSNKETLVNQANGKKQEIAKLENLSNDEMLRYNTAIDNVVKQYNEGKLNITAAMNALNSIKQAAQEVAQKNLQKQYAKKIERISSKGLALSKKAKEIYEKHKSILPTPGYYADSVGTYLNRFRDKQTFGNRSVWTGQSGLDEAKKMLDEVKKLLKELQDLTRGLEHHHHHH
notes: His-tagged fragment expressed from pET21b(+); also called BibA N-terminal construct; N-terminal portion of BibA
binding result [3]: binds

B2: BibA-His (GBS3-His), recombinant entire form of BibA from S. agalactiae 2603 V/R with C-terminal His-tag (other)
chain: MHADTSSGISASIPHKKQVNLGAVTLKNLISKYRGNDKAIAILLSRVNDFNRASQDTLPQLINSTEAEIRNILYQGQIGKQNKPSVTTHAKVSDQELGKQSRRSQDIIKSLGFLSSDQKDILVKSISSSKDSQLILKFVTQATQLNNAESTKAKQMAQNDVALIKNISPEVLEEYKEKIQRASTKSQVDEFVAEAKKVVNSNKETLVNQANGKKQEIAKLENLSNDEMLRYNTAIDNVVKQYNEGKLNITAAMNALNSIKQAAQEVAQKNLQKQYAKKIERISSKGLALSKKAKEIYEKHKSILPTPGYYADSVGTYLNRFRDKQTFGNRSVWTGQSGLDEAKKMLDEVKKLLKELQDLTRGTKEDKKPDVKPEAKPEAKPDVKPEAKPDVKPEAKPDVKPEAKPDVKPEAKPDVKPEAKPDVKPKAKPDVKPEAKPDVKPDVKPDVKPEAKPEDKPDVKPDVKPEAKPDVKPEAKPEAKPEAKPEAKPEAKPEAKPDVKPEAKPDVKPEAKPEAKPEAKSEAKPEAKLEAKPEAKPATKKSVNTSGNLAAKKAIENKKYSKKLPSTGEAASPLLAIVSLIVMLSAGLITLEHHHHHH
notes: His-tagged protein expressed from pET21b(+) in E. coli; also called recombinant BibA; BibA protein
binding result [4]: no binding

B3: BibA-Ct-His (GBS3-Ct-His), proline-rich domain of BibA, aa 389-622 (other)
chain: MQDLTRGTKEDKKPDVKPEAKPEAKPDVKPEAKPDVKPEAKPDVKPEAKPDVKPEAKPDVKPEAKPDVKPKAKPDVKPEAKPDVKPDVKPDVKPEAKPEDKPDVKPDVKPEAKPDVKPEAKPEAKPEAKPEAKPEAKPEAKPDVKPEAKPDVKPEAKPEAKPEAKSEAKPEAKLEAKPEAKPATKKSVNTSGNLAAKKAIENKKYSKKLPSTGEAASPLLAIVSLIVMLSAGLITLEHHHHHH
notes: His-tagged fragment; also called BibA C-terminal construct; C-terminal portion of BibA
binding result [3]: no binding (tested: 5 µg/ml)
